Data on one substance can be found in publication PMC4833825.

The test has as its target recombinant S. pombe eIF2B, one set of the five subunits (α, β, γ, δ, ε), tags cleaved (S. pombe) (UniProt Q9USP0). In words: SEC; purified complex after HRV 3C cleavage of the tags; Sephacryl S-300, then Superose 6 with HMW calibration kit, buffer C (20 mM HEPES-KOH pH 7.5, 150 mM KCl, 5 % glycerol, 1 mM DTT), 277 K; SDS-PAGE of the purified complex.

In the case of “recombinant S. pombe eIF2B, one set of the five subunits (α, β, γ, δ, ε), tags cleaved, Q9USP0 1-341; Q9UT76 1-393; P56288 1-458; Q09924 1-467; P56287 1-678”, the stoichiometry N turned out to be 2.
